Source: the nanobody polyreactivity screen of Harvey et al. (2022)

assay: yeast display, Sf9 membrane polyspecificity reagent, FACS + sequencing; frameworks hold sequencing errors
Procedure, shortened: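 A synthetic nanobody library was expressed on Saccharomyces cerevisiae BJ5465 by galactose induction for 36–48 hours. The library was stained for 1 hour at 4 °C with 10% biotinylated, detergent-solubilized Sf9 membrane reagent and enriched with streptavidin microbeads before FACS. Low and high (top ~1%) gates were set on anti-HA fluorescence for expression and streptavidin fluorescence for reagent binding, and each polyreactivity label reflects the gate of origin.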

Sequence | polyreactivity (PSR sort gate)
QVQLVESCGGLVQAGGSLPLSCAASGFTFYYYTMGWYRQAPGKERELVAVITGGGGSTYYADSVKGRFTISRDNAKNTVYLQMNSLKPEDTAVYYCAAKFYGWYRERGYDYWGQGTQVTVSS | high polyreactivity
QLQLVESGGGLVQAGGILRLSCAASGLIFAEYAMGWYRQAPAKERELVARITSGGSTDYADSVKGRFTISRDNAKNTVYLQMNSLKPEDTAVYYCAARYYSQDKNASTASDFDYWGQGTQVTVSS | low polyreactivity
QVQLLESGGGLVQAGGSLRLSCAPSGSTFGYYAMGWYRPAPGKERELVAAITSGGRTYYADSVKGRFTISRDNAKNTVYLQMISLKPEETAVYYFAAIYRTYNKFDYWGQGTQVTVSS | high polyreactivity
QVQLVESGGGLVQAGGSLRLSCAASGLTFTPNAMGWYRQAPGKEREFVAAITWRGGRTYYADSVKGRFTISRDNAKNTVYLQMNSLKPEDTAVYYCAVTYRPTYQLDYWGQGTQVTVSS | high polyreactivity
QVQLVESGGGLVQAGGSLRLICAASGITFTGYAMGWYREAPGKEREVVAPISKRGARTYYADSVKGRFTISRDNAKHTVYVQMNSLQPEDTAVYYCAVRRWGYWTGYRGLDYDYWGQGTQVTVSS | high polyreactivity
QVKLVESGGGLDQAGGSLRLSCAAYGSIFGDYVMGWYRQAPGKEMEFVAAISGSGGSTYYADSVKWRFTISRVNAKNTVYLQMNCLKPEDTAVYYCSTSGPQYYSRNLDYWGQGTQVTVSS | low polyreactivity
QVQLVESGGGLVQAGGSLRLSCAASGSIFYYYGMGWYRQAPGKESDLVARISKSVGRTYYADSVKGRFTISRDNAKNTVYLQMNSLKPEDTAVYYCAASRSFQGNRYDYWGQGTQVTVSS | high polyreactivity
QVQLVESGGGLVQAGGSLRLSCAASGIIFTSNTMGWYRQAPGKEREFVASINWNGSSTNADSVKGRFTISRDNAKNTVYLQMNSLKPEDTAVYYCNADYNRNSVQFSLYDYWGQGTQVTVSS | low polyreactivity
QVQIVESGGGLVQAGGSLRLSCAASGSTFEVNAMGWYRQAPGKERELVAVITSGGSTNYADSVKGPFTISRDNAKNTVYLQMNSLKPEDTAVYYCAKDSRTLEDYWGQGTQVTVSS | low polyreactivity
QVQLVESGGGLVQAGGSLRLSCAASGFIYGPNAMGWYRQAPGKERELVAAISYSGGRTYYADSVKGRFTISRDNAKNTVYLQLISLKPEDSAVYYCAAERKIKYDYWGQGTQVTVSS | high polyreactivity
QVQLVESGGGLVQAGGSLRLSCAASGSIFSYNAMGWYRQAPGKERELVAAITSGDSTNYADSVKGRFTISRDNAKNTVYLQMNSLKPEDTAVYYCAADPVLPAFGYVGTSLGDYWGQGTQVTVSS | low polyreactivity
QVQLVESGGGLVQAGGSLRLSCAASGSIFELNAMGWYRQAPGKERELVAAITSSGSSTYYADSVKGRFTISRDNAKNTVYLQMNSLKPEDTAVYYCFRPHDYWGQGTQVTVTS | low polyreactivity
QVQLVESGGGLVQAGGSLRLSCPASGFTFHHYVMGWYRPAPGKEMEFVASIRWRGGSTYYADSVKGRFTISRDNAKTTVYLQMNSLKPEDTAVYYSNADPYVYSSWQYGYWGQGTQVTVSS | high polyreactivity
QVQLVESGRGLVQAGGSLRLSCAASGSTFRGNAMGWYRQATGKERELVAAITRSGGRTYYADSVKGRFTISRDNAKNTVYLQMNSLKPEDTAVYYCAVEYKYPGYDYWGPGTQVTVSS | high polyreactivity
QVHLVESGGGLVQEGGSLRLSCAASGSIFQYYAMGWYIQAPGKERELVAAISWRSGRTYYADSVKGRFTISRDNAKNTVYLQMNSLKPEDTAVYYCIRGYARDYDYWGQGTQVTVSS | high polyreactivity
HVQLVESGGGLVQAGGSLRLSCAASGRIFAPYDMGWYRPAPGNERELVAAISRSGGSTYYADSVKGRFTSSRDNAKNTVYLQMNSLKPEDTAVYYCAASYPGRYWLYRYEYWGQGTQVTVSS | high polyreactivity
QVQLVESVGRLVQAGGSLRLSCAASGRIIYWNAKGWYRQAPGKERELVAGITTGGSTYYADSVKGRFTISRDNAKNTVYLQMNSLKPEDTAVYYCAARPFIRQRYGYWGKGTQVTVSS | high polyreactivity
QDQLVESGGGLVQAGGSLRLSCAASGFIFRWYAMGWYRQAPGKERELVAAISRSGDSTYYADSVKGRFTISRDNAKNTVYLQMNSLIPEDTAVYYCAADDRYYTYGYDYWGQGTQVTVSS | low polyreactivity
QVQLVESGGGLVQAGGSLRLSCAASGSIFDFYAMGWYRQAPGKERELVADISSSDGSTSYADSVKGRFTISRDNAKNTVYLQLNSLKPEDTAVYYCAASQLFGWFPYDYWGQGTQVTVSS | high polyreactivity
QVQLVESGGGLVQAGGSLRLSCAASGRIFYYNGMGWYRQAPGKERELVASIPRTSGRTFYADSVKGRFTISRDKAKNTVYLQMNSLKPEDTAVYYCAAVGSRYVLGEYGYWGQGTQVTVSS | high polyreactivity
QVQLVESGGGLVQAGGSLRLSCAASGRIFVPYLMGWYRQAPGKERELVASISDSDTSTYYADSVKGRFTISRDNAKNTVYLQMNCLKPEDTAVYYCNVDYWGQGTQVTVSS | low polyreactivity

Sequence | polyreactivity (PSR sort gate)
QVQHVESGGGLDQAGGSLRLSCAASGSIYVGNEMGWSRQATGKETELVDTISWSGGSTYYADSVKGRFTISRDNAKNTVYLQMNSLKPEDTAVYYCAKTPYRRYRYGGYNYRTYDYWGQGTQVTVSS | low polyreactivity
QVQLVESGGGLVQAGGSLRLSCAASGSNFKRYTMGLYRQAPGKEWELVAAISTSSGSTYYADSVKGRFTISRDNANNSVYLQMNSLKPEDTAVYYCAAVRHRQTYPKYNYWGQGTQVTVSS | high polyreactivity
QVQLVESGGGLVQAGGSLRLSCAASGSIFSYYAMGWYRPAPGKERELVAAISWSGGSTYYADSVKGRFTISRDNAKNTVSLQMNSLIPADTAVYYCAAGVTYEKQTKYYYWGQGTQVTVSS | high polyreactivity
QVQLVESGGGVVQAGGSLRLSCAASGTTFSWYAMGGYRQAPGKERVLVAAISSGGSTNYADSVKGRFTISRDNAKNTVYLQMNSLKPEDTAVYYCAAVWSRYLISYSTGWWFEYWGQGTQVTVSS | low polyreactivity
QVQLVESGGGLVQAGGSLRLSCAASGSSFDPYAMGWYRQAPGKERELVATITYSGGRTYYADSVKGRFTISRDNAKNTVYLQMNSLKPEDTAVYYCAADWDPGYYVQYGYDYWGQGTQVTVSS | low polyreactivity
QVQLVESGGGLVQAGGSLRLSCAASGLIFGSYAMGWSRQAPGKERELVAAISRSGGSTYYADSVKGRFTISRDNAKNTVYLQMNSLKPEDTAVYYCAARGYPLGIGRIKRNYWGQGTQVTVAS | high polyreactivity
QVQLVETGGGLVQAGGSLRLSCAASGRIFEIYAMGWYRQAPGKERELVAAIDESGGSTYYADSVKGRFTISRDNGKNTVYLQMNSLKPEDTAVYYCATDDTWTITYGWYWFTYEYWGQCTQVTVSS | low polyreactivity
QVQLVESGGGLVQAGGSLRLSCAASGRTFWTNTMGWYRQAPGNEREFVAAITFGDGSTSYADSVKGRFTISRDNAKNTVYLQMNCLIAEVTAVYYCAKRWRRRFVDVWSLYDYWGQGTQVTVSS | low polyreactivity
QVQLVESGGGLVQAGGSLRLSCAASGRINAMGWYRQAPGKERELVAVITLRGGSTYYADSVKGRFTISRDNAKNTGYLQMNSLKPEDTAVYYCAAETLVSFWFDYWGQGTQVTVSS | low polyreactivity
QVKLLDSGGGLVQAGGSLRLSCSASGFTFNNYAMVWYRQAPGKERELVAAISWAGGSTYYADSVKGRFTISRDNAKNTVYLQMNTLKPEDTAVYYCAKRIRYTTRPTYGFYYWGQGTQVTVSS | high polyreactivity
QVQLVESGGGLVQAGGSLRLSCAASGITFYDYAMGWYRQAPGKERELVAVITRRGGSTYYADSVKGRFTISRDNAKNTVYIQMNSLKPEDTAVYYCAADWRVWSFVRGVDYWGQGTQVTVSS | high polyreactivity
QVQLVESGGGLVQAGGSLRLSCAASGSIIGSYAMGWYRQAPGKERELVAAINSGGSTNYADSVKGRFTISRDNAKNTVYLQMNSLKPEDTAVYYCASRQVYKFRRYDYWGQGTQVTVSS | high polyreactivity
KVQIVESGGGLVQAGGSLRLSCAASGRTFVVNGMGRYRQAPGKDRELVAAINTSGGSTHYADSVKGRITISRDNAKNTVYLQMNILKPEDTAVYYCAAVGYWRDYSGYWDYYYIYDYWGQGTQVNVSS | low polyreactivity
QVQLQERAAWCRRAGSLRLSCAASGNISDYYFMGWYRQAPGKERERVAAIAPGSKTYYADSVKGRFTISRDNAKNTVYLQMNSLKPEDTAVCFCAANSTQYTWFDYWGQGTQVPVSS | low polyreactivity
QVHLLERGGGLVQAGGSLRLSCMASGSILGDSMSWYRQAPGKEHELVATIYDGGITYYADSMKGRFTISRDNAKNSVYLQMNSLRPEDTAVYYCGASFEGYSYHVYCGQGTQVTVSS | low polyreactivity
QEQLQESGGGLVKAGGSLRLSCAASGNISNHNDMGWYRQAPGKEREFVAGITAGGITNYADSVKGRFTISRDNAKNTVYLQMNSLKPEDTAVYYCAAYPDYAKSYGYWGQGTQATVSS | low polyreactivity
QGQLVETGGGLVQAGGSLRLSCGASGSTFLWNTIGWYRQGPRKERELVAEIRTSGGGTYYADSVKGRFTISRDNAKNTVYLQMNSLKPEDTEVYYCYADPKWEMGSWGQGTQVTVSS | low polyreactivity
QVQLVESGGGLVQAGGSLRLSCAASGRIFDGYAIGWYRQAPGKERDLVAAISWGGGSTYYADSVKGRFTISRDNAKNTVYLQMNSLKPDDTAVYYCAGDGIWAREMDYWGQGTQVTVSS | low polyreactivity
QVQLVESGAGLFQAGGSLRLTCAPSGSIFAFNTMGLYRQAPGKERHLVAAITWGGGSTYYADSVKGRFTISRDNAKNTVYLQMYSLKPEDTAVYYCATKAKYGRQFLMEYWGQGTQVTVSS | high polyreactivity
QVQLVESGGGLVQAGGSLRLSCAASGITFYYYVMGWYRQAHGKERELVAAISNRGGSTYYADSVKGRFTISRDNAKNTVYLQMNSLKPDDTAVYYCAAYPLSGYDYWGQGTQVTVSS | high polyreactivity
